From US20130274185A1, “Pharmaceutical for Pseudo-Exercise Therapy” (THE UNIVERSITY OF TOKYO, priority 2010, published 2013)
“Also recorded” adds a separate entry of the source.

Tests used:
[1] = Plasma adiponectin level after intravenous adiponectin injection; type: in vivo, mice; conditions: 30 μg recombinant murine adiponectin per 10 g body weight, intravenously
Excerpt: (§1) Mouse full-length adiponectin was generated as described in the following documents (Nature Med. 8, 1288-1295 (2002); Nature Med. 7, 941-946 (2001); Nature 423, 762-769 (2003)).

PGC-1α (Ppargc1a) [2] = assay: Ppargc1a mRNA levels in skeletal muscle in vivo; set-up: species or system mice; conditions: control littermates; 30 μg per 10 g body weight, 10 min
Experimental: as §1
(§2) Real-time PCR was carried out according to the method described in the following documents (Nature Med. 13, 332-339 2007); Nature 423, 762-769 (2003); J. Biol. Chem. 281, 8748-8755 (2006)). Total RNA was prepared from cells or tissues by using Trizol (Invitrogen) according to the manufacturer's instructions. Quantification of mRNA was conducted using a real-time PCR method (Nature 423, 762-769 (2003)) with slight modifications. The procedures used for immunoblotting are described in the following documents (Nature Med. 7, 941-946 (2001); J. Biol. Chem. 281, 26602-26614 (2006); J. Biol. Chem. 281, 8748-8755 (2006)). The livers or muscles were freeze-clamped in liquid nitrogen in situ (Nature Med. 7, 941-946 (2001); J. Biol. Chem. 281, 26602-26614 (2006); J. Biol. Chem. 281, 8748-8755 (2006)).

PGC-1α = PGC-1α acetylation in C2C12 myocytes; type: cell-based, mouse; conditions: treatment for 2 hr
Experimental: (§3) The mouse C2C12 myoblasts were grown in 90% Dulbecco's modified high glucose Eagle's medium containing 10% (v/v) fetal bovine serum. When the cells reached 80% confluent, the myoblasts were induced to differentiate into myocytes by replacing the medium with a low serum differentiation medium (98% Dulbecco's modified high glucose Eagle's medium, 2.5% (v/v) horse serum). The medium was changed daily. The C2C12 cells were transfected by using Pofectamine 2000 (Invitrogen) and following the manufacturer's instructions.

C2C12 myocytes = assay: NAD+/NADH measurements in C2C12 myocytes; type: cell-based, mouse
Experimental: NAD^+ and NADH nucleotides were directly measured by the method described in the following document (Nature, 458, 1056-1060 (2009)). Whole skeletal muscles or two 10 cm dishes of C2C12 myocytes were homogenized in 200 μl of an acid extraction buffer to measure the NAD^+ concentration, or 200 μl of alkali extraction to obtain the NADH concentration. Next, homogenates were neutralized and the concentration of nucleotides was measured fluorimetrically after an enzymatic cycling reaction using 5 μl of a sample. Values for both nucleotides were detected within the linear range. NAD^+/NADH ratios were calculated by comparing the ratios obtained from each animal or from parallel cell dishes in each experiment.

AdipoR1 = molecular target: T1, AdipoR1 (Mus musculus, UniProt Q91VH1); assay: Electrophysiological recording in Xenopus oocytes expressing AdipoR1; type: cell-based
T1 construct: expressed in transfected cells; host or cells: Xenopus oocytes (stage V to VII), cRNA synthesized from linearized modified pSPUTK
T1 sequence (Q91VH1 1-375): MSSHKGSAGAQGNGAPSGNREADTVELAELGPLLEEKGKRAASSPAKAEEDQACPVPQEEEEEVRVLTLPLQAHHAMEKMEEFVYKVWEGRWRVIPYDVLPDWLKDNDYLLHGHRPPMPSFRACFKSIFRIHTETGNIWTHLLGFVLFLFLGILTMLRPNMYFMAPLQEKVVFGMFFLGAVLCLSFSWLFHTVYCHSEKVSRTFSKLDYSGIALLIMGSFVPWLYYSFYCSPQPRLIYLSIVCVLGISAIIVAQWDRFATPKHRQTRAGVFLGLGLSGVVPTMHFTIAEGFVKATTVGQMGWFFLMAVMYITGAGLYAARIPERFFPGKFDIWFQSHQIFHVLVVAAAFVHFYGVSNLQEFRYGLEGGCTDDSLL
Experimental: Stage V to VII oocytes were treated with 2 mg/ml of collagenase S-1 (Nitta gelatin) in calcium ion-free saline solution (82.5 mM NaCl, 2 mM KCl, 1 mM MgCl2, and 5 mM HEPES, pH 7.5) for 1 to 2 hr at room temperature. The resulting oocytes were then microinjected with 50 ng of cRNA for mAdipoR1. The cRNA was synthesized from linearized modified pSPUTK. The injected oocytes were incubated for 3 days at 18° C. in a bath solution (88 mM NaCl, 1 mM KCl, 0.3 mM Ca(NO3)2, 0.4 mM CaCl2, 0.8 mM MgSO4, 2.4 mM […], 15 mM HEPES, pH 7.6) supplemented with 10 μg/ml of penicillin and streptomycin.
Whole cell currents were recorded with a two-electrode voltage clamp technique. Intracellular glass electrodes were filled with 3M KCl. Signals were amplified with an OC-725C amplifier (Warner Instruments), low-pass filtered at 50 Hz, and digitized at 1 kHz. A control bath solution contained 115 mM NaCl, 2.5 mM KCl, 1.8 mM CaCl2, and 10 mM HEPES. It was titrated to pH 7.2 with NaOH. A calcium ion free solution containing 1.8 mM BaCl2 instead of CaCl2 was used. The inward current was monitored at a holding potential of −80 mV. Calcium ion activated Cl^− current was monitored by applying 500-mscc depolarizing pulses of +100 mV and +50 mV from the holding potential of −80 mV. Adiponectin was supplied to the superfusing bath solution via a silicon tube connected to computer-driven solenoid valves. Data acquisition and analysis were carried out using Digidata 1322A and pCLAMP software.

PGC-1α (Ppargc1a) [3] = assay: PGC-1α (Ppargc1a) expression in C2C12 myocytes; type: cell-based, mouse; conditions: C2C12 myocytes, adiponectin 10 μg/ml 1.5 hours
Experimental: as §2, §3

CaMKI = CaMKI phosphorylation in skeletal muscle in vivo; set-up: species or system mice; conditions: 30 μg per 10 g body weight, 5 min
Excerpt: as §1

HDAC5 = HDAC5 phosphorylation in C2C12 myocytes; type: cell-based, mouse; conditions: adiponectin 30 μg/ml, 0-20 min
Experimental: as §3

- calcium-ion activated Cl- current response (AdipoR1; control oocytes without AdipoR1 cRNA): not observed
- inward current response (AdipoR1; oocytes expressing AdipoR1, adiponectin 30 μg/ml, holding potential -80 mV): induced inward current responses
- intracellular calcium levels by calcium-ion activated Cl- current (AdipoR1; oocytes injected with AdipoR1 cRNA, adiponectin 30 μg/ml): increase in intracellular calcium levels
B1: adiponectin (protein, UniProt Q60994 1-247, looked up)
chain: MLLLQALLFLLILPSHAEDDVTTTEELAPALVPPPKGTCAGWMAGIPGHPGHNGTPGRDGRDGTPGEKGEKGDAGLLGPKGETGDVGMTGAEGPRGFPGTPGRKGEPGEAAYVYRSAFSVGLETRVTVPNVPIRFTKIFYNQQNHYDGSTGKFYCNIPGLYYFSYHITVYMKDVKVSLFKKDKAVLFTYDQYQEKNVDQASGSVLLHLEVGDQVWLQVYGDGDHNGLYADNVNDSTFTGFLLYHDTN
modifications: full-length
notes: adipokine, internal ligand of adiponectin receptor 1; recombinant murine full-length adiponectin
- plasma adiponectin levels [1]: approximately 30 μg/ml
- expression levels of Ppargc1a in muscle (PGC-1α (Ppargc1a) [2]): increased the expression levels of Ppargc1a in the muscle of control littermates
- PGC-1α acetylation (PGC-1α): decreased PGC-1α acetylation
- NAD+ and NADH contents (C2C12 myocytes): increased
- NAD+/NADH ratio (C2C12 myocytes): increased a NAD^+/NADH ratio; also recorded: increased the NAD^+/NADH ratio
- PGC-1α expression (PGC-1α (Ppargc1a) [3]): increase in PGC-1α expression
- phosphorylation of CaMKI in skeletal muscle in vivo (CaMKI): significantly increased
- HDAC5 phosphorylation (HDAC5): increased HDAC5 phosphorylation
